Target: PcrV (residues 25–294) (P. aeruginosa, UniProt G3XD49 25-294)
Test: SPR

B1: PcrG-GB1-His6 (natural protein)
chain: MGDMNEYTEDTLRATVQAAELAIRDSEERGRLLAEMWQGLGLAADAGELLFQAPERELARAAEEELLAELRRMRSSQPTQGEQGTRPRRPTPMRGLLIGSENLYFQ
Kd: 26 nM

B2: PcrG^9–76-GB1-His6 (domain or fragment)
chain: MEDTLRATVQAAELAIRDSEERGRLLAEMWQGLGLAADAGELLFQAPERELARAAEEELLAELRRMRSSGSENLYFQ
Kd: 24 nM
